Data: the Human Domainome abundance scans (Beltran et al. 2025)
± gives the uncertainty stated by the source.

B1: Tumor protein p73, residues 487 to 549; numbered along this chain, O15350 (parent)
chain: YHADPSLVSFLTGLGCPNCIEYFTSQGLQSIYHLQNLTIEDLGALKIPEQYRMTIWRGLQDLK

Variants of: B1
Experiment: abundance fitness (aPCA) (normalised: wild type 0, dead -1); higher = more abundant; growth selection in yeast, the domain comes from the species named
Settings: Homo sapiens

Q50N and Q50D are within error of each other in abundance fitness: 0.009 ± 0.07 for the first, -0.106 ± 0.2 for the second.

Q50C and Q50H are within error of each other in abundance fitness: 0.096 ± 0.059 for the first, 0.039 ± 0.065 for the second.

N36R and N36D are within error of each other in abundance fitness: 0.034 ± 0.031 for the first, 0.075 ± 0.039 for the second.

Going from N36F to N36M, the abundance fitness rises from -0.198 ± 0.072 to -0.007 ± 0.054.

Compared with N36C, N36A is higher in abundance fitness: -0.567 ± 0.33 for the first, -0.04 ± 0.04 for the second.

Going from N36L to A3V, the abundance fitness rises from -0.061 ± 0.034 to 0.137 ± 0.051.

A3F and A3Q are within error of each other in abundance fitness: 0.36 ± 0.11 for the first, 0.311 ± 0.045 for the second.

Q35F and Q35C are within error of each other in abundance fitness: -0.142 ± 0.085 for the first, -0.07 ± 0.083 for the second.

Going from Q35M to Q35K, the abundance fitness rises from -0.058 ± 0.051 to 0.078 ± 0.057.

C16P and C16W are within error of each other in abundance fitness: -1.01 ± 0.27 for the first, -0.773 ± 0.072 for the second.

C16Q and C16S are within error of each other in abundance fitness: -0.504 ± 0.092 for the first, -0.389 ± 0.059 for the second.

First: L34R
Second: L34T
The abundance fitness of the first is lower: -0.867 ± 0.077 for the first, 0.018 ± 0.045 for the second.

First: L34Q
Second: L34S
The abundance fitness of the first is lower: -0.529 ± 0.073 for the first, -0.319 ± 0.045 for the second.

First: L34E
Second: L34M
The abundance fitness of the first is lower: -0.638 ± 0.062 for the first, 0.021 ± 0.051 for the second.

Compared with I55T, I55W is lower in abundance fitness: -0.598 ± 0.077 for the first, -0.923 ± 0.084 for the second.

First: I55F
Second: I55R
The abundance fitness of the first is higher: -0.601 ± 0.096 for the first, -0.807 ± 0.056 for the second.

P17R and P17C are within error of each other in abundance fitness: -0.024 ± 0.03 for the first, -0.08 ± 0.051 for the second.

Compared with P17N, P17K is higher in abundance fitness: -0.154 ± 0.14 for the first, 0.075 ± 0.04 for the second.

Compared with P17M, P17W is lower in abundance fitness: -0.007 ± 0.05 for the first, -0.14 ± 0.039 for the second.

P5E and P5N are within error of each other in abundance fitness: 0.24 ± 0.049 for the first, 0.225 ± 0.084 for the second.

Compared with P5L, P5D is higher in abundance fitness: 0.073 ± 0.035 for the first, 0.201 ± 0.07 for the second.

K63L and K63A are within error of each other in abundance fitness: -0.261 ± 0.087 for the first, -0.082 ± 0.16 for the second.

S30G and S30Y are within error of each other in abundance fitness: -0.086 ± 0.03 for the first, -0.016 ± 0.051 for the second.

First: S30W
Second: S30P
The abundance fitness of the first is lower: -0.817 ± 0.085 for the first, -0.629 ± 0.094 for the second.

S30Q and S30T are within error of each other in abundance fitness: 0.115 ± 0.041 for the first, 0.085 ± 0.073 for the second.

Going from L7W to L7C, the abundance fitness rises from -0.847 ± 0.08 to -0.4 ± 0.062.

First: L7G
Second: L7F
The abundance fitness of the first is lower: -0.936 ± 0.071 for the first, -0.266 ± 0.073 for the second.

L7Q and L7H are within error of each other in abundance fitness: -1.01 ± 0.12 for the first, -0.969 ± 0.24 for the second.

First: L7E
Second: Q29R
The abundance fitness of the first is lower: -0.512 ± 0.095 for the first, -0.063 ± 0.028 for the second.

Q29K and Q29N are within error of each other in abundance fitness: 0.05 ± 0.035 for the first, -0.108 ± 0.21 for the second.

Q29E and Q29G are within error of each other in abundance fitness: 0.05 ± 0.038 for the first, -0.006 ± 0.03 for the second.

I31M and I31A are within error of each other in abundance fitness: 0.012 ± 0.053 for the first, 0.004 ± 0.043 for the second.

I31T and I31N are within error of each other in abundance fitness: -0.005 ± 0.05 for the first, -0.086 ± 0.051 for the second.

I31P and I31H are within error of each other in abundance fitness: -0.048 ± 0.052 for the first, -0.156 ± 0.06 for the second.

I20A and I20S are within error of each other in abundance fitness: -0.061 ± 0.042 for the first, -0.049 ± 0.03 for the second.

Going from I20F to I20R, the abundance fitness rises from -0.257 ± 0.052 to -0.111 ± 0.033.

First: I20Y
Second: I20V
The abundance fitness of the first is lower: -0.1 ± 0.038 for the first, 0.009 ± 0.029 for the second.

P48M and P48F are within error of each other in abundance fitness: -0.965 ± 0.091 for the first, -1.3 ± 0.37 for the second.

First: P48S
Second: P48D
The abundance fitness of the first is lower: -0.149 ± 0.037 for the first, -0.054 ± 0.051 for the second.

P48C and P48H are within error of each other in abundance fitness: -0.51 ± 0.071 for the first, -0.389 ± 0.083 for the second.

Compared with P48A, P48N is lower in abundance fitness: -0.091 ± 0.043 for the first, -0.261 ± 0.1 for the second.

First: P48L
Second: T38P
The abundance fitness of the first is lower: -1.1 ± 0.12 for the first, -0.201 ± 0.054 for the second.

Compared with T38Y, T38E is higher in abundance fitness: -0.409 ± 0.11 for the first, -0.107 ± 0.074 for the second.

H2C and H2E are within error of each other in abundance fitness: 0.197 ± 0.096 for the first, 0.066 ± 0.046 for the second.

Going from H2G to H2T, the abundance fitness rises from -0.096 ± 0.045 to 0.273 ± 0.053.

Going from H2S to L28T, the abundance fitness falls from 0.274 ± 0.041 to -0.186 ± 0.046.

Going from L28R to L28G, the abundance fitness falls from -0.05 ± 0.027 to -0.289 ± 0.032.

Going from L28V to L28W, the abundance fitness falls from -0.008 ± 0.028 to -0.16 ± 0.039.

Compared with L28E, L28S is higher in abundance fitness: -0.177 ± 0.061 for the first, -0.079 ± 0.035 for the second.

Compared with L28P, G13M is higher in abundance fitness: -0.286 ± 0.069 for the first, -0.075 ± 0.048 for the second.

First: G13H
Second: G13L
The abundance fitness of the first is higher: 0.11 ± 0.058 for the first, -0.124 ± 0.035 for the second.

Going from G13C to G13T, the abundance fitness rises from -0.142 ± 0.077 to -0.012 ± 0.047.

Going from M53F to M53T, the abundance fitness rises from -0.123 ± 0.063 to 0.009 ± 0.043.

M53P and M53L are within error of each other in abundance fitness: -0.051 ± 0.053 for the first, 0.021 ± 0.032 for the second.

N18I and N18G are within error of each other in abundance fitness: 0.005 ± 0.079 for the first, 0.061 ± 0.039 for the second.

First: N18K
Second: N18P
The abundance fitness of the first is higher: -0.163 ± 0.045 for the first, -0.288 ± 0.053 for the second.

D41R and D41G are within error of each other in abundance fitness: -0.052 ± 0.036 for the first, 0.006 ± 0.041 for the second.

First: D41H
Second: D41C
The abundance fitness of the first is higher: -0.198 ± 0.068 for the first, -0.361 ± 0.07 for the second.

First: D41Q
Second: D41W
The abundance fitness of the first is higher: 0.105 ± 0.057 for the first, -0.885 ± 0.11 for the second.

Compared with D41E, D41A is lower in abundance fitness: 0.119 ± 0.042 for the first, -0.094 ± 0.038 for the second.

First: R52T
Second: R52G
The abundance fitness of the first is higher: 0.009 ± 0.045 for the first, -0.114 ± 0.046 for the second.

R52S and R52Y are within error of each other in abundance fitness: -0.066 ± 0.05 for the first, 0.095 ± 0.24 for the second.

Compared with R52I, R52P is lower in abundance fitness: 0.2 ± 0.073 for the first, -0.755 ± 0.095 for the second.

R52C and D4N are within error of each other in abundance fitness: -0.131 ± 0.11 for the first, -0.15 ± 0.092 for the second.

D4W and Y1I are within error of each other in abundance fitness: 0.181 ± 0.18 for the first, 0.336 ± 0.16 for the second.

Y1N and Y1P are within error of each other in abundance fitness: 0.054 ± 0.13 for the first, 0.161 ± 0.14 for the second.

Y1T and Y1H are within error of each other in abundance fitness: 0.109 ± 0.13 for the first, -0.075 ± 0.088 for the second.

L62N and L62Y are within error of each other in abundance fitness: 0.058 ± 0.088 for the first, 0.008 ± 0.087 for the second.

L62P and L62E are within error of each other in abundance fitness: -0.032 ± 0.058 for the first, -0.007 ± 0.038 for the second.

G27R and G27S are within error of each other in abundance fitness: -0.024 ± 0.025 for the first, -0.07 ± 0.035 for the second.

K46M and K46W are within error of each other in abundance fitness: -0.155 ± 0.057 for the first, -0.249 ± 0.037 for the second.

First: K46G
Second: K46E
The abundance fitness of the first is higher: 0.025 ± 0.027 for the first, -0.127 ± 0.043 for the second.

Going from K46V to T54I, the abundance fitness rises from -0.092 ± 0.034 to 0.025 ± 0.062.

Going from T54C to T54R, the abundance fitness rises from -0.13 ± 0.1 to 0.02 ± 0.043.

First: T54K
Second: L45K
The abundance fitness of the first is higher: 0.06 ± 0.047 for the first, -0.216 ± 0.076 for the second.

First: L45E
Second: L45Y
The abundance fitness of the first is lower: -0.553 ± 0.07 for the first, 0.04 ± 0.1 for the second.

First: L45C
Second: L45G
The abundance fitness of the first is higher: -0.016 ± 0.041 for the first, -0.517 ± 0.046 for the second.

First: L45N
Second: L45T
The abundance fitness of the first is lower: -0.224 ± 0.091 for the first, -0.076 ± 0.039 for the second.

First: I47Y
Second: I47F
The abundance fitness of the first is lower: -0.824 ± 0.17 for the first, -0.263 ± 0.068 for the second.

First: I47Q
Second: Y22V
The abundance fitness of the first is lower: -0.985 ± 0.088 for the first, -0.079 ± 0.038 for the second.

Y22A and Y22E are within error of each other in abundance fitness: -0.035 ± 0.036 for the first, -0.107 ± 0.046 for the second.

Y22N and Y22H are within error of each other in abundance fitness: 0.002 ± 0.12 for the first, 0.031 ± 0.07 for the second.

Y22K and C19I are within error of each other in abundance fitness: -0.047 ± 0.042 for the first, -0.055 ± 0.09 for the second.

C19M gave an abundance fitness of 0.048 ± 0.036.
